Experimental data from US20250179144A1.

What was measured:
[1] = target: G115 Vγ9Vδ2+ TCR wild-type expressed on transfected cells; test: flow cytometry, tetramer-PE against CD3-APC on HEK293T cells co-transfected with CD3 and G115 WT TCR; SAv control 27
[2] = target: G115 Vγ9Vδ2+ TCR Glu52δ-Ala expressed on transfected HEK293T cells; test: flow cytometry, tetramer-PE against CD3-APC on HEK293T cells co-transfected with CD3 and G115 Glu52δ-Ala TCR; SAv control 32
[3] = target: G115 Vγ9Vδ2+ TCR Lys53δ-Ala expressed on transfected HEK293T cells; test: flow cytometry, tetramer-PE against CD3-APC on HEK293T cells co-transfected with CD3 and G115 Lys53δ-Ala TCR; SAv control 27
[4] = target: G115 Vγ9Vδ2+ TCR His85γ-Ala expressed on transfected HEK293T cells; test: flow cytometry, tetramer-PE against CD3-APC on HEK293T cells co-transfected with CD3 and G115 His85γ-Ala TCR; SAv control 27
[5] = target: full-length human BTN3A1 on transfected cells (human) (UniProt O00481); test: flow cytometry, γδTCR tetramer-PE on BTN3A1-transfected NIH-3T3 cells treated with isotype IgG1κ (black number); SAv control 26
[6] = target: full-length human BTN3A1 on transfected cells (human) (UniProt O00481); test: flow cytometry, control tetramer-PE on BTN3A1-transfected NIH-3T3 cells treated with isotype IgG1κ (black number); SAv control 25
[7] = target: full-length human BTN3A1 on transfected cells pre-treated (cross-linked) with anti-BTN3A mAb clone 20.1 (human); test: flow cytometry, FRET (YG 670/30) between TCR tetramer-PE and anti-BTN3A 20.1-AF647 on BTN3A1+ NIH-3T3 cells; with IgG1κ-AF647 the gate holds 0, with SAv 0

Sequence of mCD1d tet. ctl (P11609 22-305): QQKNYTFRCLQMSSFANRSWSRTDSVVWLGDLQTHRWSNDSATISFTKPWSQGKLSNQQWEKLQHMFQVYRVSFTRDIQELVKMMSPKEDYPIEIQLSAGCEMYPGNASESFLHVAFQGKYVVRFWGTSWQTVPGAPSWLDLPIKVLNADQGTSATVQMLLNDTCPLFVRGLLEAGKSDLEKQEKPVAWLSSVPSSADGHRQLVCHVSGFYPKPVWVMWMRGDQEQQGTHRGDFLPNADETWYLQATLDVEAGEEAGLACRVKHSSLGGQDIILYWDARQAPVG
Sequence of soluble G115 Vγ9Vδ2+ TCR wild-type (TCR delta): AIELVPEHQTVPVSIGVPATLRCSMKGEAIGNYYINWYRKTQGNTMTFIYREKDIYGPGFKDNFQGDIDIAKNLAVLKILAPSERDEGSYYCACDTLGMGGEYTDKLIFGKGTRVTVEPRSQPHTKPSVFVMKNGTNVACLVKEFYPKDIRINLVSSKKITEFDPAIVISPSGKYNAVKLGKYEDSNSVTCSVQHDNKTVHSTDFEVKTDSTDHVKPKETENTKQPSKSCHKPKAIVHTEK
Sequence of soluble G115 Vγ9Vδ2+ TCR wild-type (TCR gamma): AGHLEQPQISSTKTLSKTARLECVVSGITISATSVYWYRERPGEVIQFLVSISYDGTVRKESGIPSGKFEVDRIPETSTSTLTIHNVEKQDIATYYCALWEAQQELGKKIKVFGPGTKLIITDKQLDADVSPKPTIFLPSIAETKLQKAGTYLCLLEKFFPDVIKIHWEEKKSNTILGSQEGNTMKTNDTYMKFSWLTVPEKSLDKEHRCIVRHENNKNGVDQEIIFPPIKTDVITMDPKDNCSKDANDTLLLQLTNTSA

Substance | MFI of PE [1] | MFI of PE [2] | MFI of PE [3] | MFI of PE [4] | MFI of PE (GFP+ gate) [5] | MFI of PE (GFP+ gate) [6] | % cells in the FRET gate [7]
BTN2A1-BTN3A1-zipper ectodomain complex (construct #1, long linker version with high affinity zippers) (ligand) | 102 | 72 | 753 | 63 | – | – | –
chimeric γδTCR tetramer: G115 pAg-reactive Vγ9+ γ-chain with 9C2 Vδ1+ δ-chain | – | – | – | – | 24 | – | –
mCD1d tet. ctl | 20 | 26 | 23 | 22 | – | 32 | –
soluble BTN2A1 ectodomain lacking Cys247 (monomeric) (from UniProt Q7KYR7 29-246) (ligand) | 282 | 469 | 507 | 28 | – | – | –
soluble G115 Vγ9Vδ2+ TCR wild-type | – | – | – | – | 35 | – | 19%
